In publication PMC9039736, “Identifying novel SMYD3 interactors on the trail of cancer hallmarks” (Computational and Structural Biotechnology Journal, 2022):

B1: HIS-SMYD3-FL (natural protein, human, UniProt Q9H7B4 1-428, looked up)
chain: MEPLKVEKFATAKRGNGLRAVTPLRPGELLFRSDPLAYTVCKGSRGVVCDRCLLGKEKLMRCSQCRVAKYCSAKCQKKAWPDHKRECKCLKSCKPRYPPDSVRLLGRVVFKLMDGAPSESEKLYSFYDLESNINKLTEDKKEGLRQLVMTFQHFMREEIQDASQLPPAFDLFEAFAKVICNSFTICNAEMQEVGVGLYPSISLLNHSCDPNCSIVFNGPHLLLRAVRDIEVGEELTICYLDMLMTSEERRKQLRDQYCFECDCFRCQTQDKDADMLTGDEQVWKEVQESLKKIEELKAHWKWEQVLAMCQAIISSNSERLPDINIYQLKVLDCAMDACINLGLLEEALFYGTRTMEPYRIFFPGSHPVRGVQVMKVGKLQLHQGMFPQAMKNLRLAFDIMRVTHGREHSLIEDLILLLEECDANIRAS
notes: SMYD3, human, full length (constructs count to residue 428); also called HIS-SMYD3-FL (full length); source: recombinant human protein
B2: HIS-SMYD3-N-term(1–235) (domain or fragment, human, UniProt Q9H7B4 1-235, looked up)
chain: MEPLKVEKFATAKRGNGLRAVTPLRPGELLFRSDPLAYTVCKGSRGVVCDRCLLGKEKLMRCSQCRVAKYCSAKCQKKAWPDHKRECKCLKSCKPRYPPDSVRLLGRVVFKLMDGAPSESEKLYSFYDLESNINKLTEDKKEGLRQLVMTFQHFMREEIQDASQLPPAFDLFEAFAKVICNSFTICNAEMQEVGVGLYPSISLLNHSCDPNCSIVFNGPHLLLRAVRDIEVGEEL
notes: SMYD3, human, residues 1-235, comprises the SET domain; source: recombinant human protein
B3: HIS-SMYD3-C-term(236–428) (domain or fragment, human, UniProt Q9H7B4 236-428, looked up)
chain: TICYLDMLMTSEERRKQLRDQYCFECDCFRCQTQDKDADMLTGDEQVWKEVQESLKKIEELKAHWKWEQVLAMCQAIISSNSERLPDINIYQLKVLDCAMDACINLGLLEEALFYGTRTMEPYRIFFPGSHPVRGVQVMKVGKLQLHQGMFPQAMKNLRLAFDIMRVTHGREHSLIEDLILLLEECDANIRAS
notes: SMYD3, human, residues 236-428, comprises the CT domain; source: recombinant human protein

biological target: T1, GST-BRCA2(1338–1781) (human, UniProt P51587 1338-1781); assay: pull-down; 200 ng HIS-SMYD3 construct with 500 ng GST-BRCA2(1338-1781), 1 h at 4 °C; precipitated by Dynabeads HIS-Tag Isolation and Pulldown; washed in buffer A (20 mM Tris-HCl pH 8, 150 mM KCl, 5 mM MgCl2, 0.2 mM EDTA, 10% glycerol, 0.1% NP-40, 1 mM DTT); immunoblot anti-GST and anti-HIS; conditions: both partners purified
T1 construct: one of nine GST fusion proteins spanning the entire coding region of BRCA2; source: recombinant GST fusion protein
T1 sequence (P51587 1338-1781): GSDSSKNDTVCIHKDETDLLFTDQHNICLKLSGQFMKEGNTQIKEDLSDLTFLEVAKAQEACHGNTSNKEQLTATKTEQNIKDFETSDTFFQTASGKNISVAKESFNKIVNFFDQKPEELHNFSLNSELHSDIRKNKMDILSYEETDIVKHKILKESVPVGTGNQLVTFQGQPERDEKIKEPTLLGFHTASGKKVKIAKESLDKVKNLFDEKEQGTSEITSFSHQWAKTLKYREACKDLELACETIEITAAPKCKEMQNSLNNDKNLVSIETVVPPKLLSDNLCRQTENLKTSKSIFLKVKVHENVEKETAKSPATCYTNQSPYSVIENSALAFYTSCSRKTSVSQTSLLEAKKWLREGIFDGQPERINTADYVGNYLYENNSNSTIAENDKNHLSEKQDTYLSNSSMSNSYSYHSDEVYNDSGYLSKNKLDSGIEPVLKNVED

Binding result, binds:
B1
B2
B3
